In patent US9278137B2, “Polymeric conjugates of active principles, their process of preparation and their polymeric intermediates” (SANOFI, priority 2010, dated 2016):
Read-outs that look alike come from different tables or passages of the source.

What was measured:
[1] = for In vitro data in rat plasma (release of free cabazitaxel): 37° C., formulation 1 mg/mL; for release profile (in words): comparison of linkers
[2] = Nanoparticle size (hydrodynamic diameter) by dynamic light scattering (DLS); settings: nanodispersion 10 mg/mL in WFI

Row | Substance | In vitro data in rat plasma (release of free cabazitaxel) ([1]; Time 0 h) | In vitro data in rat plasma (release of free cabazitaxel) ([1]; Time 1 h) | In vitro data in rat plasma (release of free cabazitaxel) ([1]; Time 2 h) | In vitro data in rat plasma (release of free cabazitaxel) ([1]; Time 4 h) | In vitro data in rat plasma (release of free cabazitaxel) ([1]; Time 18 h) | In vitro data in rat plasma (release of free cabazitaxel) ([1]; Time 24 h) | free cabazitaxel released in 24 h ([1]; rat plasma) [%] | release profile (in words) ([1]; rat plasma) | release of succinyl-cabazitaxel from the formulation ([1]; rat plasma, quantified using HPLC) | Mean diameter (using DLS) [2] [nm] | PDI (DLS) [2]
1 | mPEG2000-PLA10000-Y-succinyl-2′-cabazitaxel [VIII′] | 0 | 0.84 | 1.68 | 3.30 | 17.35 | 20.16 | ~17 | slowest release profile | < 1 % of cabazitaxel present initially in the nanoparticles | – | –
2 | mPEG-PLA-diglycolyl-cabazitaxel [XI] | 2.20 | 5.36 | 8.67 | 14.81 | 49.39 | 55.09 | ~47 | relatively rapid release | – | 52 | 0.18
3 | mPEG-PLA-glutaryl-cabazitaxel | 0 | 1.31 | 2.30 | 5.29 | 23.51 | 31.72 | ~27 | – | – | 60 | 0.21
4 | mPEG-PLA-succinyl-larotaxel [IX] | – | – | – | – | – | – | – | – | – | 48 | 0.17
